Assay results reported in publication PMC9288967.

Target: SARS-CoV-2 spike RBD (wild type) (SARS-CoV-2) (UniProt P0DTC2)
Assay: BLI

Work on mNb6(108FFY) (VHH) yielded a Kd of 0.91 nM.
